Patent publication US12637662B2, “Cells, islets, and organoids that evade immune detection and autoimmunity, methods of production and use thereof” (SALK INSTITUTE FOR BIOLOGICAL STUDIES, priority 2018, dated 2026)

Test system: wHILO cells
Experiment: Immunohistochemistry and flow cytometry of cell composition
Format: cell-based, human
Method: Secondary antibodies were coupled to Alexa 568, 647 (Life Technologies), and IHC staining was visualized by confocal microscopy (ZEISS) or fluorescence microscopy. Hoechst 33342 (Thermo Scientific, 62249, 1 μg/ml final concentration) was used for nuclear staining.
Clusters at indicated stages were dissociated with TrypLE (GIBCO) with 20 ug/ml DNase for 12 minutes at 37° C. and then were fixed with 4% PFA for 10 minutes at room temperature. Clusters were then permeabilized with 0.2% Triton X for 10 min, blocking with 10% goat serum for 30 min and stained for various intracellular markers with antibodies, c-peptide, (1/100, abcam, ab30477), PDX-1 (1/100, BD, 562161), NKX6-1 (1/100, BD, 563338), Chromogranin A (1/100, BD, 564583), MAFA (1/100, abcam, ab264583), MAFB (1/100, abcam, ab66506), Glucagon (1/100, abcam, ab82270), Somatostatin (1/100, abcam, 108456) for analysis on a BD Biosciences LSRII instrument. Data were analysed by FlowJo software. Secondary antibodies for c-peptide, Glucagon and Somatostatin were coupled to Alexa 647 (Life Technologies).

B1: WNT4: recombinant human Wnt4 protein (R&D Systems), non-canonical WNT maturation factor (protein, UniProt P56705 23-351, looked up)
Protein Wnt-4: SNWLYLAKLSSVGSISEEETCEKLKGLIQRQVQMCKRNLEVMDSVRRGAQLAIEECQYQFRNRRWNCSTLDSLPVFGKVVTQGTREAAFVYAISSAGVAFAVTRACSSGELEKCGCDRTVHGVSPQGFQWSGCSDNIAYGVAFSQSFVDVRERSKGASSSRALMNLHNNEAGRKAILTHMRVECKCHGVSGSCEVKTCWRAVPPFRQVGHALKEKFDGATEVEPRRVGSSRALVPRNAQFKPHTDEDLVYLEPSPDFCEQDMRSGVLGTRGRTCNKTSKAIDGCELLCCGRGFHTAQVELAERCSCKFHWCCFVKCRQCQRLVELHTCR
cellular composition of HILOs: not altered
